Patent US20080311122A1, “Antagonists of Hmgb1 and/or Rage and Methods of Use Thereof” (Medimmune, LLC, priority 2005, published 2008)
Entries after “also recorded” stand apart in the source; their conditions may differ.

T1: HMGB-1 (Homo sapiens, UniProt P09429)
T1 sequence (P09429 1-215): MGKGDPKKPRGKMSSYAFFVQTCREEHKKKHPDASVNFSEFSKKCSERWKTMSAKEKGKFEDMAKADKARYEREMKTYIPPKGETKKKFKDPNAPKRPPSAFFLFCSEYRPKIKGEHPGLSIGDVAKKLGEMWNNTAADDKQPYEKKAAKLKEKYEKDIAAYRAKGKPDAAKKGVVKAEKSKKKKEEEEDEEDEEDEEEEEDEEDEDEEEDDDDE

B1: E11: human anti-HMG1 antibody, recognizes HMG1 A-Box; VL/VH aa SEQ ID NO: 24/26 (antibody, listed as Homo sapiens, V domains shown)
VH: EVQLLESGGGLVQPGGSLRLSCAASGFTFSRYQMNWVRQAPGKGLEWVSSISPSGGHTHYADSVKGRFTISRDNSKNTLYLQMNSLRAEDTAVYYCAKDGRQGKISTVDHWGQGTLVTVSS
VL: AQDIQMTQSPGTLSLSPGERATLSCRASQSVRSNFLAWYQQKPGQAPRLLIYGASRRASGIPDRFSGSGFGADFTLSISRLEPEDFAVYYCQQYGSSPNTFGQGSRVEIK
B2: G9: human anti-HMG1 antibody; VL/VH aa SEQ ID NO: 34/36 (antibody, listed as Homo sapiens, V domains shown)
VH: EVQLLESGGGLVQPGGSLRLSCAASGFTFSSYDMFWVRQAPGKGLEWVSRISPSGGYTYYADSVKGRFTISRDNSKNTLYLQMNSLRAEDTAVYYCARLRYFDSRGYAFDIWGQGTMVTVSS
VL: AQDIQMTQSPGTLSLSPGERATLSCRASQSVRSSYLAWYQQKPGQAPRLLIYGASTRATGIPDRFSGSGSGTDFTLTISRLEPEDFAVYYCQQYGTSRWTFGQGTKVEIK

Key:
[1] = system: CpG2216+thymus HMG1 induced IFN-a release (TLR9 signaling); experiment: Inhibition of HMG1 mediated enhancement of TLR9 signaling, CpG2216 + thymus HMG1 in bone marrow cells; format: cell-based; conditions: mouse bone marrow cells
Description: HMGB1+TLR Ligand: Freshly isolated bone marrow cells were stimulated with TLR ligands (TLR3:PolyIC@5 μg/mL; TLR4:LPS@2.5 ng/mL; TLR5:flagellin@0.25 μg/mL; TLR7:polyU@4 μg/mL or R837@5 μg/mL; TLR9:CpG2216@1 μM) with or without presence of thymus HMGB1 (10 μg/mL) for 24 hr. Cytokines in the supernatant were measured by ELISA.
Inhibition of HMG1 Mediated Enhancement of TLR Signaling: Freshly isolated bone marrow cells were stimulated with TLR9 ligand CpG2216 (0.3 μM) and thymus HMGB1 (10 μg/mL) in the presence of different concentration of the anti-HMGB1 mAb E11 or control human IgG for 24 hr and IFN-a in the supernatant was measured by ELISA. CpG2216, HMGB1 and nonstimulatory DNA were used alone or in combination as controls for the assay.

HMGB-1 = biological target: T1, HMGB-1; experiment: Antibody HMG1 binding competition via BIAcore analysis
Description: Antibody HMG1 Binding Competition via BIAcore Analysis: All experiments were performed on a BIAcore 3000 instrument (BIAcore, Inc., Piscataway, N.J.). The HMGB-1 protein was immobilized onto a CM5 sensor using a standard amine coupling chemistry protocol, as described in the BIAcore Handbook (BIAcore, Inc., Piscataway, N.J.). Briefly, the CM5 surface subject to the NHS/EDC activation. After activation a HMGB-1 was injected over the surface at a concentration of 100 nM or 200 nM (in 10 mM NaOAc, pH4) to a surface density of between 1100 and 1200 RU's. Following this, unreacted sites on the sensor chip surface were “capped” with an injection of 1M ethanolamine. For reference purposes, a blank flow cell was also prepared, utilizing this same procedure that was used to immobilize HMGB-1, but without any ligand.
MAbs G2, G4, G9, S6 and Synagis were prepared at 1 uM and 2 uM. All mAb solutions were prepared in HBS-EP buffer (BIAcore, Inc., Piscataway, N.J.). Each cycle started with a 100 μL injection of the first mAb, injected at 1 μM, followed by a second 100 μL injection of a 1:1 mixture of two, 2× concentration mAbs, such that the final concentration of each component mAb in the mixture is equivalent to the first injection. […]
Once the entire set had been collected, the maximum RU responses for each mAb after each injection cycle was recorded. […]

Row | Molecule | inhibition of IFN-a release induced by CpG + thymus HMG1 [1] | inhibition of IFN-a release induced by CpG alone [1] | binding sites on HMGB1 by BIAcore competition (HMGB-1)
1 | B1 | could be blocked; also recorded: inhibited the release of INF-a induced by CpG2216+thymus HMG1 | not blocked; also recorded: Neither E11, G4 or Rage/Fc inhibited | 
2 | B2 |  |  | bind to either the same site or sites that are highly related perhaps overlapping
